# B1: SOAT1 (parent)
# chain: GVLILFLTFFAFLHCWLNAFAEML
# B2: C22orf15 (parent)
# chain: PRGRAHLLPNPYQQDFLGLPEELR
# Variants of: B1
# Test: protein stability index of a GFP-peptide fusion (GPS, HEK-293T) (PSI 1-6); higher = more stable
# Settings: c terminus: a fixed tail appended
# 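Note: lentivirally expressed fusions sorted by FACS into six bins by GFP to DsRed ratio, PSI derived from sequencing read proportions per bin multiplied by bin number.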
row,Variant,protein stability index
1,A21P,2.29
2,A21F,3.12
3,A21Y,1.84
4,A21N,2.76
5,A21K,2.01
6,A21Q,3.1
7,A21V,2.73
8,A21S,1.84
9,A21H,2.98
10,A21M,3.62
11,A21E,1.83
12,A21D,2.14
13,A21I,2.93
14,A21C,2.48
15,A21L,1.4
16,A21R,2.11
17,A21T,2.29
18,A21G,2.77
19,A19W,1.73
20,A19I,2.76
21,A19E,3.48
22,A19L,3.05

row,Variant,protein stability index
1,A19S,2.83
2,A19P,2.31
3,A19V,2.77
4,A19G,3.14
5,A19F,1.68
6,A19R,1.64
7,A19K,2.96
8,A19N,2.8
9,A19T,2.82
10,A19D,2.85
11,A19H,3.33
12,A19Q,2.59
13,A19Y,2.29
14,A19M,3.03
15,M23T,2.98
16,M23V,2.08
17,M23I,2.85
18,M23H,2.55
19,M23L,2.88
20,M23Y,2.54
21,M23E,1.75
22,M23K,2.91

row,Variant,protein stability index
1,M23A,2.44
2,M23G,2.18
3,M23N,2.68
4,M23C,3.08
5,M23Q,2.73
6,M23R,2.77
7,M23P,3.44
8,M23D,2.29
9,M23S,3.71
10,M23F,2.67
11,M23W,2.61
12,E22V,3.24
13,E22P,3.59
14,E22A,1.99
15,E22I,2.95
16,E22F,3.34
17,E22G,2.16
18,E22W,3.25
19,E22Q,2.63
20,E22K,2.31
21,E22L,2.92
22,E22C,2.74

row,Variant,protein stability index
1,E22D,2.19
2,E22T,2.47
3,E22M,3.66
4,E22R,1.7
5,E22N,2.79
6,E22H,3.56
7,E22Y,2.22
8,E22S,3.37
9,F20N,2.01
10,F20S,2.94
11,F20W,3.57
12,F20K,2.71
13,F20D,3.92
14,F20I,2.67
15,F20G,2.22
16,F20P,2.93
17,F20E,2.67
18,F20C,2.33
19,F20H,3.21
20,F20T,1.98
21,F20A,3.08
22,F20M,2.85

row,Variant,protein stability index
1,F20V,3.21
2,F20R,2.89
3,F20L,2.56
4,F20Y,2.9
5,L24D,1.75
6,L24K,3.06
7,L24P,2.68
8,L24M,2.72
9,L24S,3.29
10,L24Q,3.14
11,L24F,2.23
12,L24E,3.41
13,L24C,3.67
14,L24Y,2.88
15,L24A,2.69
16,L24V,2.75
17,L24R,2.33
18,L24W,2.06
19,L24T,3.04
20,L24I,2.63
21,L24G,3.4
22,L24N,2.98

# Variants of: B2
# Test: as above
# Settings: c terminus: a fixed tail appended
row,Variant,protein stability index
1,G3V,3.93
2,G3Q,3.45
3,G3I,3.83
4,G3R,3.52
5,G3D,4.03
6,G3L,3.51
7,G3H,3.79
8,G3S,3.52
9,G3K,3.16
10,G3N,3.61
11,G3E,3.82
12,G3M,2.7
13,G3F,3.79
14,G3A,4.32
15,G3P,3.77
16,G3C,3.15
17,G3W,3.27
18,G3Y,3.72
19,G3T,2.66

row,Variant,protein stability index
1,R2W,3.33
2,R2M,4.08
3,R2L,3.76
4,R2D,3.44
5,R2G,4
6,R2V,3.81
7,R2N,3.46
8,R2F,3.31
9,R2P,4.18
10,R2S,4.15
11,R2A,4.04
12,R2H,3.87
13,R2T,4.22
14,R2I,3.62
15,R2E,4.69
16,R2Y,3.5
17,R2K,3.75
18,R2Q,4.24
19,R2C,2.26

row,Variant,protein stability index
1,P1D,4.1
2,P1Q,3.72
3,P1L,2.64
4,P1M,2.93
5,P1S,3.23
6,P1C,2.22
7,P1V,2.83
8,P1F,2.61
9,P1Y,3.11
10,P1G,3.75
11,P1E,3.96
12,P1N,3.69
13,P1I,2.37
14,P1K,3.22
15,P1T,3.52
16,P1R,3.06
17,P1H,3.6
18,P1A,3.34
19,P1W,2.92

# From the supplement of paper PMC10567573
